Results from PMC6854486.

Test system: RcGTA gp1 (small terminase TerS), MBP fusion (Rhodobacter capsulatus SB1003)
Test: EMSA
Settings: 25 mM HEPES pH 8.0, 50 mM K-glutamate, 1 mM DTT, 0.05% Triton X-100, 4% glycerol, 1 ug poly(dI-dC), 100 ng DNA in 10 ul, room temperature 30 min; 0.8% agarose …

Substance: rcc01398 flanking amplicon (1.4 kbp)
- binding signal (% bound at 40 uM protein): 87

Substance: rcc01397 flanking amplicon
- binding signal (% bound at 40 uM protein): 87
